Measurements published in the nanobody polyreactivity screen of Harvey et al. (2022).

Test: yeast display, Sf9 membrane polyspecificity reagent, FACS + sequencing; frameworks hold sequencing errors
Method in brief: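 A synthetic nanobody library was expressed on Saccharomyces cerevisiae BJ5465 by galactose induction for 36–48 hours. The library was stained for 1 hour at 4 °C with 10% biotinylated, detergent-solubilized Sf9 membrane reagent and enriched with streptavidin microbeads before FACS. Low and high (top ~1%) gates were set on anti-HA fluorescence for expression and streptavidin fluorescence for reagent binding, and each polyreactivity label reflects the gate of origin.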
With “QVQLVESGGGLVQAGGSLRLSCAASGRIFSRNAMGWYRQAPGKERELVAAITWRGGNTYYAHSVKGRFTISRDNAKNTVYLQMNSLKPEDTAVYYCAADYLRWAGRYFSWDYDYWGQGTQVTVSS” the “polyreactivity (PSR sort gate)” value was “high polyreactivity”.
In the case of “QVQLVESGGGLVQAGGSLRLSCAASGRIFSRSAMGWYRQAPGKERELVAAIRWSTGSTNYADSVKGRFTISRDNAKNTVYLQMNSLKPEDTAVYYCNARYYVRPYSPGYYYWGQGTQVTVSS”, the “polyreactivity (PSR sort gate)” value is reported as “high polyreactivity”.
In the case of “QVQLVESGGGLVQAGGSLRLSCAASGRIFSRYAMGWDRQAPGKERELVAAINNGGSTYYADSVKGRFTISRDNAKNTVYLQMNSLKPEDTAVYYCAKLWWSNFKPVEYWGQGTQVTVSS”, the “polyreactivity (PSR sort gate)” value is reported as “low polyreactivity”.
With “QVQLVESGGGLVQAGGSLRLSCAASGRIFSRYAMGWYRQAPGKERELVAAIASSGTTTYYADSVKGRFTISRDIAKNTVYLQMNSLKAEDTAVYYCATSAVRHIYWGQGTQVTVSS” the “polyreactivity (PSR sort gate)” value was “high polyreactivity”.
For “QVQLVESGGGLVQAGGSLRLSCAASGRIFSRYAMGWYRQAPGKERELVAAIRSNGGRTYYADSVKGRFTISRDNAKNTVYLQMNSLKPEDTAVYYCAAAGGGKVSYRDYDYWGQGTQVTVSS”, the “polyreactivity (PSR sort gate)” value was “high polyreactivity”.
In the case of “QVQLVESGGGLVQAGGSLRLSCAASGRIFSRYAMGWYRQAPGKERELVASIRITGSTYYADSVKGRFTISRDNAKTTVYLQMNSLKPEDTAVYYCAAYQYRLGNIRLNYWGQGTQVTVSS”, the “polyreactivity (PSR sort gate)” value is reported as “high polyreactivity”.
For “QVQLVESGGGLVQAGGSLRLSCAASGRIFSRYAMGWYRQAPGKERELVATISSGGGTYYADSVKGRFTISRDTAKNTVYLQMNSLKPEDTAVYYCAAASYSGHGRYDDWGQGTQVSVSS”, the “polyreactivity (PSR sort gate)” value was “high polyreactivity”.
For “QVQLVESGGGLVQAGGSLRLSCAASGRIFSRYAMGWYRQAPGKERELVAVISRSGADTYYADSVKGRFTISRDNAKNTVYLQMNSLKPEDTAVYYCNAYSARRPHPMGYDYWGQGTQVTVSS”, the “polyreactivity (PSR sort gate)” value was “high polyreactivity”.
With “QVQLVESGGGLVQAGGSLRLSCAASGRIFSRYVMGWYRQAPGKEREFFASITWSGSSTYYADSVKGRFTISRDNAKNTVYLQMNSLKPEDTAVYYCAALGLLSPSPCGTHISEYDSWGQGTQVTVSS” the “polyreactivity (PSR sort gate)” value was “low polyreactivity”.
With “QVQLVESGGGLVQAGGSLRLSCAASGRIFSSNAMGWYRQAPGKEREFVAAISWRTGSTYYADSVKGRFTISRDNAKNTVYLQMNSLKPEDTAVYYCNKRTGSYGYPYYYWGQGTQVTVSS” the “polyreactivity (PSR sort gate)” value was “high polyreactivity”.
For “QVQLVESGGGLVQAGGSLRLSCAASGRIFSSYAMGWYRQAPGKERELVAAISKSGGNTYYADSVKGRFTISRDNAKNTVYLQMNSLKPEDTAVYYCDAVAPYTLYFWLYYWGQGTHVTVSS”, the “polyreactivity (PSR sort gate)” value was “high polyreactivity”.
In the case of “QVQLVESGGGLVQAGGSLRLSCAASGRIFSSYAMGWYRQAPGKERELVAAISRGGGRTYYADSVKGRFTISRDNAKNTVYLQMNSLKPEDTAVYYCATVVRSAAYAFDYWGQGTQVTVSS”, the “polyreactivity (PSR sort gate)” value is reported as “high polyreactivity”.
For “QVQLVESGGGLVQAGGSLRLSCAASGRIFSSYAMGWYRQAPGKERELVAAISSRGGSTYYADSVKGRFTISRDNAKNTVYLQMNSLKPEDTAVYYCARVKYSGVVYKYDYWGQGTQVTVSS”, the “polyreactivity (PSR sort gate)” value was “high polyreactivity”.
For “QVQLVESGGGLVQAGGSLRLSCAASGRIFSSYDMGWYRQAPGKEPELVAAISRSGARTYYADSVKGRFTISRDNAKNTVYLQMNSLKPEDTAVYYCAAEFRSWGGYRYRFNYWGQGTQVTVSS”, the “polyreactivity (PSR sort gate)” value was “high polyreactivity”.
In the case of “QVQLVESGGGLVQAGGSLRLSCAASGRIFSTYAMGWYRQAPGKERELVAAISWRGSSTYYADSVKGRFTISRDNAKNTVYLQMNSLKPEDTAVYYCNADKANRYDWGQGTQVTVSS”, the “polyreactivity (PSR sort gate)” value is reported as “high polyreactivity”.
In the case of “QVQLVESGGGLVQAGGSLRLSCAASGRIFSTYAMGWYRQAPGKERELVAAISYSGTTTYYADSVKGRFTISRDNAKNTVYLQLNRLKPEDTAVYYCAAYRYSSWAYGRDYYWGQGTQVTVSS”, the “polyreactivity (PSR sort gate)” value is reported as “high polyreactivity”.
In the case of “QVQLVESGGGLVQAGGSLRLSCAASGRIFSVNAMGWYRQAPGKERELVAAITTRGGTTYYADSVKGRFTISRDNAKNTVSLQMNSLKPEDTAVYYCAAESSWYVYWEWAHDYWGQGTQVTVSS”, the “polyreactivity (PSR sort gate)” value is reported as “low polyreactivity”.
For “QVQLVESGGGLVQAGGSLRLSCAASGRIFSVNAMGWYRQAPGKERELVASISWSGGSTYYADSVKGRFTISRDNAKNTVYLQMNSLKPEDTAVYYCARGYWVYYPDGDYWGQGTQVTVSS”, the “polyreactivity (PSR sort gate)” value was “low polyreactivity”.
In the case of “QVQLVESGGGLVQAGGSLRLSCAASGRIFSVNAMGWYRQAPGNERELVAAMTSGDSTNYADSVKGRFTISRDNAKNTVYLQMNSLKPEDNAVYYCNARGSQELWRRKWYHTEYDYWGQGTQVTVSS”, the “polyreactivity (PSR sort gate)” value is reported as “low polyreactivity”.
For “QVQLVESGGGLVQAGGSLRLSCAASGRIFSVYAMGWYRPAPGKERELVAAITRVGSTNYADSVKGRFTISRDNAKNTVYLQMNSLKPEDTAVYYCAASKYGSLSGYWGQGTQVTVSS”, the “polyreactivity (PSR sort gate)” value was “high polyreactivity”.
In the case of “QVQLVESGGGLVQAGGSLRLSCAASGRIFSVYVMGWYRPAPGKERELVAAISGRDGTTYYADSVKGRFTISRDNAKNTVYLQMNSLKPEDTAVYYCAAEDIDFTPMDYWGQGTQVTVSS”, the “polyreactivity (PSR sort gate)” value is reported as “high polyreactivity”.
For “QVQLVESGGGLVQAGGSLRLSCAASGRIFSVYVMGWYRQAPGKERELVAAITRSGGRTYYADSVKGRFTISRDNAKNTVYLQMNSLKPDDTAVYYCAARVKGYAYNYWGQGTQVTVSS”, the “polyreactivity (PSR sort gate)” value was “high polyreactivity”.
With “QVQLVESGGGLVQAGGSLRLSCAASGRIFSWYTMGRYRQAPGKERELVADITYSGGSTYYADSVKGRFTISRDNAKNTVYLQMNSLKPEDTAVYYCNADPRWYHFEYGYWGQGTQVTVSS” the “polyreactivity (PSR sort gate)” value was “high polyreactivity”.
With “QVQLVESGGGLVQAGGSLRLSCAASGRIFSWYTMGWYRQAPGKERELVAAISWSGTSTYYADSVKGRFTISRDNAKNTVYLQMNSLKPEDTAVYYCARVLSPYYSTRYDHWGQGTQVTVSS” the “polyreactivity (PSR sort gate)” value was “high polyreactivity”.
In the case of “QVQLVESGGGLVQAGGSLRLSCAASGRIFSYNAMGWDRQAPGKERELVSAISYGGGRTYYADSVKGRFTISRYNAKNTVYLQMNSLKPEDTAVYYCNRYGRQYDFFYWGQGTQVTGSS”, the “polyreactivity (PSR sort gate)” value is reported as “high polyreactivity”.
For “QVQLVESGGGLVQAGGSLRLSCAASGRIFSYNAMGWYRQAPGKERELVAASTFSGGGTYYADSVKGRYTISRDNAKNPVYLQMNSLKPEDTAVYYCNNLSYGYSTYGYWGQGTQVTVSS”, the “polyreactivity (PSR sort gate)” value was “low polyreactivity”.
With “QVQLVESGGGLVQAGGSLRLSCAASGRIFSYYAMGWYRKAPGKERELVAAITSAGGTNYAVSVKGRFTISRDNAKITVYLQMNSLKPEDTAVYYCAADSSVLQNYYRYRYPYVTYNYWGQGTQVTVSS” the “polyreactivity (PSR sort gate)” value was “low polyreactivity”.
With “QVQLVESGGGLVQAGGSLRLSCAASGRIFSYYAMGWYRQAPGKERELVAAISRGGTTNYADSVKGRFTISRDNAKNTVYLQMNSLKPEDTAVYYCNRDFHLIHLSSARLDYWGQGTQVTVSS” the “polyreactivity (PSR sort gate)” value was “low polyreactivity”.
In the case of “QVQLVESGGGLVQAGGSLRLSCAASGRIFSYYAMGWYRQAPGKERELVASISRSGGSTYYADSVKGRFTISRDNAKNTVYLQMNSLKPEDTAVYYCAAYKYVRSYPYDYWGQGTQVTVSS”, the “polyreactivity (PSR sort gate)” value is reported as “low polyreactivity”.
In the case of “QVQLVESGGGLVQAGGSLRLSCAASGRIFSYYAMGWYRQAPRKERELVAGINWRGGRTYYADTVKGRFTISRDNAKITGYLQMNSLKPEETAVYYCAGDHPETPYDYWGQGTQVTVSS”, the “polyreactivity (PSR sort gate)” value is reported as “high polyreactivity”.
For “QVQLVESGGGLVQAGGSLRLSCAASGRIFTAYAMGWYRQAPGKERELVAAISSGDSTYYADSVKGRFTISRDNAKNTVYLQMNSLKPEDTAVYYCAAEGYLWGQSYNGLNYDSWGQGTQVTVSS”, the “polyreactivity (PSR sort gate)” value was “low polyreactivity”.
With “QVQLVESGGGLVQAGGSLRLSCAASGRIFTDNAMGWYRQEPGKERELVAAIRGSGSSTYYADSVKGRFTISRDNAKNTVYLQMNSLKPEDTAVYYCAARRAVYRGNYWGQGTQVTVSS” the “polyreactivity (PSR sort gate)” value was “high polyreactivity”.
In the case of “QVQLVESGGGLVQAGGSLRLSCAASGRIFTFNAMGWYRQAPGKERELVAAINSGGSRTYYADSVKGRFTISRDNAKNTVYLQMNSLKPEDTAVYYCAAGYSGWVRSSSPFYYWGQGTQVTVSS”, the “polyreactivity (PSR sort gate)” value is reported as “high polyreactivity”.
For “QVQLVESGGGLVQAGGSLRLSCAASGRIFTFNAMGWYRQAPGKERELVAAIRRGGGRTYYADSVKGRFTISRDNAKNTVYLQMNSLKPEDTAVYYCAAPFYRQSLIEYDYWGQGTQVTVSS”, the “polyreactivity (PSR sort gate)” value was “high polyreactivity”.
In the case of “QVQLVESGGGLVQAGGSLRLSCAASGRIFTFYAMGWSRQAPGKERELVAVITTGTSTTYADSVKGRFTISRDNAKNTVYLQMNSLKPEDTAVYYCAVDSWSRVQGWLAHNYDYWGQGTQVTVSS”, the “polyreactivity (PSR sort gate)” value is reported as “low polyreactivity”.
With “QVQLVESGGGLVQAGGSLRLSCAASGRIFTGNARGWYRQAPGKERELVAGISTSGGSTYYADSVKGRFTISRDNAKNTVYLQMTSLTPEDTAVYYCAAAYVHYVYKYDYWGQGTQVTVSS” the “polyreactivity (PSR sort gate)” value was “high polyreactivity”.
With “QVQLVESGGGLVQAGGSLRLSCAASGRIFTGYAMGWYRQAPGKERELVAAISRGGSTNYADSVKGRFTISRDNAMNTVYLQMNSLKAEDTSVYYCACGVHWDRGDYWGQGAQVTVSS” the “polyreactivity (PSR sort gate)” value was “low polyreactivity”.
For “QVQLVESGGGLVQAGGSLRLSCAASGRIFTGYAMGWYRQAPGKERELVAAITASGGNTYYADSVKGRFTISRDNAKNTVYLQMNSLKPEDTAVYYCAAGWYDQPDDYTSAYGVTKYGYWGQGTQVTVSS”, the “polyreactivity (PSR sort gate)” value was “low polyreactivity”.
With “QVQLVESGGGLVQAGGSLRLSCAASGRIFTGYAMGWYRQAPGKERELVAVISSSTDRTYSADSVKGRFTISRDNAKNTVYFQMNSLKPEDTAVYYCAARPYRHKSRRYDYWGHGTQVTVSS” the “polyreactivity (PSR sort gate)” value was “high polyreactivity”.
In the case of “QVQLVESGGGLVQAGGSLRLSCAASGRIFTGYAMGWYRQAPGTERELVAAISDGGSTNYADSVKGRFTISRDNAKNTVYLQMNSLKPEDTAVYYCAADGHSSDKYDYWGQGTQVTVSS”, the “polyreactivity (PSR sort gate)” value is reported as “low polyreactivity”.
In the case of “QVQLVESGGGLVQAGGSLRLSCAASGRIFTHNAMGWYRQAPGKERELVAAISYSGVSTYYADSVKGRFTISRDNAKNTVYLQMNSLKPEDTAVYYCARDRWKWHYGYDYWGQGTQVTVSS”, the “polyreactivity (PSR sort gate)” value is reported as “low polyreactivity”.
For “QVQLVESGGGLVQAGGSLRLSCAASGRIFTHNAMGWYRQAPGKERELVAAITWTGGSTYADSVKGRFTISRDNAKKTVYLQMNSLKPEDTAVYYCNARAHRYYLYDVQFGRGHSGGYWGQGTQVTVSS”, the “polyreactivity (PSR sort gate)” value was “low polyreactivity”.
With “QVQLVESGGGLVQAGGSLRLSCAASGRIFTHNSMGWYRQAPGKERELVAAISYSGVSTYYADSVKGRFTISRDTAKNTVFLQMNSLKPEDTAVYYCNAVWEYSGKSDYWGQGTQVSVSS” the “polyreactivity (PSR sort gate)” value was “low polyreactivity”.
